B3: Mpn400 (residues 41 to 582), His-tagged recombinant, lacking the membrane domain (other)
chain: HHHHHHSSGLVPRGSHMNEVLRLQSGETLIASGRSGNLSFQLYSKVNQNAKSKLNSISLTDGGYRSEIDLGDGSNFREDFRNFANNLSEAITDAPKDLLRPVPKVEVSGLIKTSSTFITPNFKAGYYDQVAADGKTLKYYQSTEYFNNRVVMPILQTTNGTLTANNRAYDDIFVDQGVPKFPGWFHDVDKAYYAGSNGQSEYLFKEWNYYVANGSPLYNVYPNHHFKQIKTIAFDAPRIKQGNTDGINLNLKQRNPDYVIINGLTGDGSTLKDLELPESVKKVSIYGDYHSINVAKQIFKNVLELEFYSTNQDNNFGFNPLVLGDHTNIIYDLFASKPFNYIDLTSLELKDNQDNIDASKLKRAVSDIYIRRRFERQMQGYWAGGYIDRYLVKNTNEKNVNKDNDTVYAALKDINLHLEETYTHGGNTMYRVNENYYPGASAYEAERATRDSEFQKEIVQRAELIGVVFEYGVKNLRPGLKYTVKFESPQEQVALKSTDKFQPVIGSVTDMSKSVTDLIGVLRDNAEILNITNVSKDETVVAELKEKLDRENVFQEIRT

Tests used:
[1] = target: T1, PGT135 Fab (against HIV-1 gp120, κ light chain); experiment: Biolayer Interferometry (Octet Red)
T1 construct: also called Fab PGT135

[2] = target: T2, Fab CR9114 (against influenza hemagglutinin, λ light chain); experiment: Biolayer Interferometry (Octet Red)
T2 construct: also called CR9114 Fab

[3] = target: T3, 4PL IgG, human multiple myeloma antibody (Mayo Clinic); experiment: Biolayer Interferometry; antibody on protein G sensors, PM2 in solution
[4] = target: T4, Human IgG2κ (Sigma Aldrich catalog no. 15404), myeloma antibody; experiment: as above
T4 construct: also called IgG2k

[5] = target: T5, Human IgG2λ (Sigma Aldrich catalog no. 15279), myeloma antibody; experiment: as above
T5 construct: also called IgG21

[6] = target: T6, Human IgG3κ (Sigma Aldrich catalog no. 15654), myeloma antibody; experiment: Biolayer Interferometry; antibody (printed IgG3λ) on protein G sensors, PM2 in solution
T6 construct: also called IgG3k

[7] = target: T7, Human IgG4κ (Sigma Aldrich catalog no. 14639), myeloma antibody; experiment: Biolayer Interferometry; antibody (printed IgG4λ) on protein G sensors, PM2 in solution
[8] = target: T3, 4PL IgG, human multiple myeloma …; experiment: Biolayer Interferometry; antibody on protein G sensors, Mpn400 in solution
[9] = target: T8, Human IgG1κ (Sigma Aldrich catalog no. 15154), myeloma antibody; experiment: as above
T8 construct: also called IgG1k

[10] = target: T4, Human IgG2κ (Sigma Aldrich catalog no. …); experiment: as above
[11] = target: T5, Human IgG2λ (Sigma Aldrich catalog no. …); experiment: as above
[12] = target: T6, Human IgG3κ (Sigma Aldrich catalog no. …); experiment: as above
[13] = target: T7, Human IgG4κ (Sigma Aldrich catalog no. …); experiment: as above
[14] = target: B3; experiment: as above

B1: recombinant Protein M TD (His-tagged MG281 residues 74 to 468) (other)
chain: HHHHHHSSGLVPRGSHMSLSLNDGSYQSEIDLSGGANFREKFRNFANELSEAITNSPKGLDRPVPKTEISGLIKTGDNFITPSFKAGYYDHVASDGSLLSYYQSTEYFNNRVLMPILQTTNGTLMANNRGYDDVFRQVPSFSGWSNTKATTVSTSNNLTYDKWTYFAAKGSPLYDSYPNHFFEDVKTLAIDAKDISALKTTIDSEKPTYLIIRGLSGNGSQLNELQLPESVKKVSLYGDYTGVNVAKQIFANVVELEFYSTSKANSFGFNPLVLGSKTNVIYDLFASKPFTHIDLTQVTLQNSDNSAIDANKLKQAVGDIYNYRRFERQFQGYFAGGYIDKYLVKNVNTNKDSDDDLVYRSLKELNLHLEEAYREGDNTYYRVNENYYPGASIYENERASRDSEFQNEILKR
Binder B1 has a Kd [1] of 3.7 nM and a Kd [2] of 1.9 nM.

B2: PM2 (Protein M TD residues 74 to 482, Tyr158 to phenylalanine) (other)
chain: HHHHHHSSGLVPRGSHMSLSLNDGSYQSEIDLSGGANFREKFRNFANELSEAITNSPKGLDRPVPKTEISGLIKTGDNFITPSFKAGYYDHVASDGSLLSYFQSTEYFNNRVLMPILQTTNGTLMANNRGYDDVFRQVPSFSGWSNTKATTVSTSNNLTYDKWTYFAAKGSPLYDSYPNHFFEDVKTLAIDAKDISALKTTIDSEKPTYLIIRGLSGNGSQLNELQLPESVKKVSLYGDYTGVNVAKQIFANVVELEFYSTSKANSFGFNPLVLGSKTNVIYDLFASKPFTHIDLTQVTLQNSDNSAIDANKLKQAVGDIYNYRRFERQFQGYFAGGYIDKYLVKNVNTNKDSDDDLVYRSLKELNLHLEEAYREGDNTYYRVNENYYPGASIYENERASRDSEFQNEILKRAEQNGVTFDENIKR
Binder B2 has a Kd [3] of 0.6 nM, a Kd [4] of 9.56 nM and a Kd [5] of 8.9 nM. For the same binder, the Kd [6] was 6.6 nM and the Kd [7] was 1.84 nM.

B3 gave a Kd [8] of 0.6 nM, a Kd [9] of 0.48 nM and a Kd [10] of 6.23 nM. For the same binder, the Kd [11] was 13 nM, the Kd [12] was 0.93 nM and the Kd [13] was 0.43 nM.

B4: 13PL IgG, monoclonal immunoglobulin from multiple myeloma patient 13PL (human IgG1κ) (antibody, V domains shown)
VH: AVSLVESGGGTVEPGSTLRLSCAASGFTFGSYAFHWVRQAPGDGLEWVAFISYNGSSKYYANFVKGRFTISRDNSSNTLSLQMNSLKASDTAVYYCARAPDCAQADCHKGAFGYWGQGTLVTVSS
VL: DIEMTQSPSSLSASTGDKVTITCQASQDIAQFLDWYQQRPGDTPKLLIYDASNLAIGVPSRFTGSGSGTDFTFTISSLQPEDIAVYYCQHYDDFPISFGPGTKLETKR
notes: also called multiple myeloma antibody 13PL; Multiple Myeloma antibody (13PL)
B4 gave a Kd [14] of 0.5 nM.
